Results taken from the supplement of paper PMC9170038.

System: MS2 coat protein
Assay: apparent KD of MS2 coat protein; designed switch direction (-1 OFF switch, 1 ON switch): 1; higher = weaker reporter binding
Summary of the method: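 Stalled E. coli RNA polymerase transcribed designed RNA switches on Illumina chips, which were then titrated with SNAP-549-labelled MS2 coat protein, doubling from 0.7 or 1.5 nM to 3 µM. Steps lasted from 0.8–1.5 h at the lowest concentration to 10–20 min at the highest. The apparent KD is each design's median over clusters of curve-fitted normalised fluorescence.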

[1] = Eterna round: R95, input ligand: FMN 200 uM
[2] = Eterna round: R95, input ligand: microRNA oligo, concentration not stated
[3] = Eterna round: R95, input ligand: none
[4] = input ligand: microRNA oligo, concentration not stated

Row | Sequence | apparent KD of MS2 coat protein [1] | apparent KD of MS2 coat protein [2] | apparent KD of MS2 coat protein [3] | apparent KD of MS2 coat protein (input ligand: FMN 200 uM) | apparent KD of MS2 coat protein [4] | apparent KD of MS2 coat protein (input ligand: none)
1 | AACAAGUUUUUGCUCGCUUAUAAGCAUGUACAUGAGGAUCACCCAUGUCAUGUACAAAGUCCAGCCUGAGCUGGACA [Reversing mir to lane 1] (puzzle: Sensor for hsa-mir-208a) | 24.5 nM | 15.5 nM | 25.4 nM | – | – | –
2 | UUUGGGUGGCUGGAGGAUAUUCUUGUGGUUACAUGAGGAUCACCCAUGUGUCGCGCGGUACGCGAGGAGAAGGCUGGCGGCCGUU (puzzle: Same State 2) | – | 223 nM | – | – | – | –
3 | AUAAGGCAAGCUUUUUUCUCGUAGUGUAAACAUGAGGAUCACCCAUGUGCCCGCUCUGGAUCUUUGGAUCGCAGAAA [Lavegeaus] (puzzle: Sensor for hsa-mir-208a) | 26.6 nM | 18.2 nM | 25.9 nM | – | – | –
4 | GGAGCCUGCACUGAGGAUAUUCAUAGUGUAACAUGAGGAUCACCCAUGUAGGCCCUGAGGCCUUGGGAGAAGGCAGUGCGGCUCG [JL-ss2-3.05 ViennaUCT mod] (puzzle: Same State 2) | 27.9 nM | 355 nM | 447 nM | – | – | –
5 | GUGUUACAUGAGGAUCACCCAUGUUGUUUUAGAUAAGGAUAUAUGGUAACGAGAGAAAUAAUAGAAGGUAUUAGGC [JR_SS1_Sub062] (puzzle: Same State 1) | – | 29.9 nM | – | – | – | –
6 | UUGUUUUGUAAUUAACAUGAGGAUCACCCAUGUCUUGGCACAGAGGAUAUACAUGUUUGUUUGUAGUAGAAGGCUGUUUAUUGU [JR_SSNG3_Sub096] (Eterna round: R96, puzzle: Same State NG 3) | – | – | – | 128 nM | 116 nM | 198 nM
7 | AUUAUUAAUAUAGGAUAUGUAAAACAUGAGGAUCACCCAUGUGAUAUCGUGAGUAAGGAGAGAGAACAGAAGGAUAUUUUUUUU [JMF's solution 3] (Eterna round: R96, puzzle: Same State NG 2) | – | – | – | 40.6 nM | 30.5 nM | 43.3 nM
8 | GGUCCAGCCUGAGCUGGACUACAGCAUGUACAUGAGGAUCACCCAUGUCAUGUACAUGCUUUUUGUUUGUCUUAAAA [Sensorship 10 - Jieux - Sensor for hsa-mir-208a] (puzzle: Sensor for hsa-mir-208a) | 20.2 nM | 38.8 nM | 24.6 nM | – | – | –
9 | UGGCUGGUGCUAGGAUAUCCAUGAGGAAUCCUCGUAGAAGGAGCACGACAUGAGGAUCACCCAUGUAGCCGUCCGUAGACGGCU [salish99_SSNG1_r04_008] (Eterna round: R96, puzzle: Same State NG 1) | – | – | – | 287 nM | 185 nM | 240 nM
10 | AACAUGAGGAUCACCCAUGUCAGGCCGCCGGCCUACAUGAGGAAGGAUAUAGCCUCGAAAAUAGGCUAGAAGGUCCUCAUGAAU [Orises] (Eterna round: R96, puzzle: Same State NG 3) | – | – | – | 78.6 nM | 6.35 nM | 23.2 nM
11 | GUAGCAUACCGAGGAUAUUCAACAUGAGGAUCACCCAUGUGUUUGUUAUAGGCCAAAAGGCCUUGGGAGAAGGCGGAAUGCUAC [Xeonanis - 20 Mod16] (Eterna round: R96, puzzle: Same State NG 2) | – | – | – | 9.03 nM | 9.65 nM | 12.9 nM
12 | CGUAGGAUAUGCAGAGGAUCACCCUGUAGAAGGACGAUUACACAGGAUAUGCAGAGGAUCACCCUGUAGAAGGGUGACUAAUCU [pwkr ssNG3 DX 2xF5 +2xFMN.3] (Eterna round: R96, puzzle: Same State NG 3) | – | – | – | 25.8 nM | 34.4 nM | 55.7 nM
13 | GCUGCAAUAAACGCCUACAUGAGGAUCACCCAUGUAUGUAGGCAGGAUAUCGUUUGCAAAGCAAACGAGAAGGGCCGUAGUAGC [Mat - Same State NG 3 - JL Mod - D35] (Eterna round: R96, puzzle: Same State NG 3) | – | – | – | 26.3 nM | 44.6 nM | 66.1 nM
14 | AGUCCAGCCUGAGCUGGACAAAAGCAUGUACAUGAGGAUCACCCAUGUCAUGUACAAGCUUUUUGCUCGUCUAAAAU [Mat - hsa-mir-208a - Mod of JL - D6] (puzzle: Sensor for hsa-mir-208a) | 430 nM | 16.3 nM | 675 nM | – | – | –
15 | GUAGCAUACCGAGGAUAUUCAUAUUACAUGAGGAUCACCCAUGUUAUAGGCCGAUUACGGCCUUGGGAGAAGGCGGAAUGCUAC [Xeonanis - 20 Mod24] (Eterna round: R96, puzzle: Same State NG 2) | – | – | – | 17.4 nM | 38.1 nM | 37.6 nM
16 | AUAAAACAUGAGGAUCACCCAUGUCAACAAAGUUGAGGAUAUGGGCAAAUAAAAUAAGAACCAGAAGGCGAAUAAU [salish99_ss1_r3_033] (puzzle: Same State 1) | 429 nM | 193 nM | 546 nM | – | – | –

Row | Sequence | apparent KD of MS2 coat protein [1] | apparent KD of MS2 coat protein [2] | apparent KD of MS2 coat protein [3] | apparent KD of MS2 coat protein (input ligand: FMN 200 uM) | apparent KD of MS2 coat protein [4] | apparent KD of MS2 coat protein (input ligand: none)
17 | GUCCGUACCACAGGAUAUCCUAGUCAUGAUCUAGGAGAAGGGUGGCCACAUGAGGAUCACCCAUGUGAAGUGCCAGAGGCACGA [MOD Xexeraed] (Eterna round: R96, puzzle: Same State NG 1) | – | – | – | 35.2 nM | 46 nM | 53.3 nM
18 | UGGAUCUAGGCUUGCCUGGGUCCUUGUUGACAUGAGGAUCACCCAUGUGUUUUUUUUUUGCUUUUUGUUUGUCAACA [JL A Humble Attempt mod 1] (puzzle: Sensor for hsa-mir-208a) | 20.8 nM | 13.6 nM | 26.1 nM | – | – | –
19 | GCUAGGAUAUGAAGAGGAUCACCCUUUAGAAGGAGCAUUAGCUAGGAUAUGAAGAGGAUCACCCUUUAGAAGGAGCACUACUCU [pwkr ssNG3 DX 2xF5 +2xFMN.7] (Eterna round: R96, puzzle: Same State NG 3) | – | – | – | 531 nM | 286 nM | 292 nM
20 | CUGAGCAAUCAAGGAUAUCACGUCGAAUAGACGUGAGAAGGUGAUCAUAACAUGAGGAUCACCCAUGUAUUACAUGAAGCUCAG [SSNG1/1-A1] (Eterna round: R96, puzzle: Same State NG 1) | – | – | – | 512 nM | 399 nM | 1280 nM
21 | GAAAGAGGAAGCGAGGAUAUCGUGUUGAGUACAUGAGGAUCACCCAUGUUGUAGGUAGAGGUAGGCGAGAAGGCGCAGGAGAAGA [JR_SS2_Sub0101] (puzzle: Same State 2) | 60 nM | 40.6 nM | 55.4 nM | – | – | –
22 | UUAAUAAUGUAAGGAUAUACAUGAGGAUUUCUCGUAGAAGGUACAGGACAUGAGGAUCACCCAUGUAUCGCUCCGUAGAGCGUA [Mat - Same State NG 1 - JL mod - D23] (Eterna round: R96, puzzle: Same State NG 1) | – | – | – | 601 nM | 228 nM | 299 nM
23 | GCCGCGUUUCGCGCCUACAUGAGGAUCACCCAUGUUUGUAGGCAGGAUAUCGUCCGCUUUGCGGGCGAGAAGGGCUGUUGUGGC [salish99_SSNG3_R04_021] (Eterna round: R96, puzzle: Same State NG 3) | – | – | – | 47 nM | 43.5 nM | 54.8 nM
24 | UUUAGUUGCGGGCAGGAUAUGUAUUAAAAUACAUGAGGAUCACCCAUGUGAGACCAUAAAGGUCUACAGAAGGGCCAAUCGCGAC [Laonerce - 19] (puzzle: Same State 2) | 14.9 nM | 89 nM | 88.1 nM | – | – | –
25 | UGUUGUAAUACAGGAUAUCUAUUAUUUUUAUUUAGAGAAGGGUAAUCACAUGAGGAUCACCCAUGUAUAUACGAGGAAGAAGAG [JMF's solution 4] (Eterna round: R96, puzzle: Same State NG 1) | – | – | – | – | 126 nM | –
26 | AAUUAAGAUCUAGGAUAUCACGUCGAUUAGACGUGAGAAGGAGAUCAUAACAUGAGGAUCACCCAUGUAUUACAUGAAUUAAUU [SSNG1/6-B2] (Eterna round: R96, puzzle: Same State NG 1) | – | – | – | – | 23.4 nM | –
27 | GGUGGGUUGCUGCCGGCACAUGAGGAUCACCCAUGUUUUGGGAAGGAUAUGGUACCUUUUUGGUGCCAGAAGGUCCCGUUGGUG [salish99_SSNG3_r04_712 large U pivot] (Eterna round: R96, puzzle: Same State NG 3) | – | – | – | – | 350 nM | –
28 | AAUAAAGUCAGUAAGGAUAUCCAAAUGGCGACAUGAGGAUCACCCAUGUAAGAAACCCGACAUCGGGAGAAGGUACAUGACGAUG [Enlaorle] (puzzle: Same State 2) | 87.9 nM | 124 nM | 127 nM | – | – | –
29 | UGGCUGGUGAUAGGAUAUACAUGAGGAAUCCUCGUAGAAGGAUCACGACAUGAGGAUCACCCAUGUAGCCGUCCGUAGACGGCU [salish99_SSNG1_r04_005] (Eterna round: R96, puzzle: Same State NG 1) | – | – | – | 493 nM | 198 nM | 551 nM
30 | UUGGUGUAGAUACAGGAUAUGUUGCUCGUAACAUGAGGAUCACCCAUGUAUCUAUGAGAUUAAAUGCAGAAGGGUGCACACCACU [salish99_ss2_r3_087] (puzzle: Same State 2) | 39.6 nM | 341 nM | 541 nM | – | – | –
31 | GCUCGCGACGCAGGAUAUGGGUGCCUGUACAUGAGGAUCACCCAUGUUAAGGGACGGAAAACGAACCAGAAGGGCGUCACGAGC [Ceusdian] (Eterna round: R96, puzzle: Same State NG 2) | – | – | – | 68.1 nM | 132 nM | 1120 nM
